Measurements published in article PMC6346094.

Biological target: Gβγ (bovine) (UniProt P62871)

decrease of GIRK1* current (two-electrode voltage clamp, Xenopus oocytes coexpressing GIRK1* and Gβγ) 40-50 min after injection of purified His-phosducin to ~23 µM: 74%
Substance: His-tagged phosducin (from UniProt P19632 1-245) (natural protein)
